# Experimental data as given in patent US20230159612A1 (MEDIGENE IMMUNOTHERAPIES, published 2023).
# B1: MAGE-A4 TCR-4 (fully human TCR) (TCR)
# TCR alpha: AQKITQTQPGMFVQEKEAVTLDCTYDTSDQSYGLFWYKQPSSGEMIFLIYQGSYDEQNATEGRYSLNFQKARKSANLVISASQLGDSAMYFCAMSGDSAGNMLTFGGGTRLMVKPHIQNPDPAVYQLRDSKSSDKSVCLFTDFDSQTNVSQSKDSDVYITDKTVLDMRSMDFKSNSAVAWSNKSDFACANAFNNSIIPEDTFFPSPESSCDVKLVEKSFETDTNLNFQNLSVIGFRILLLKVAGFNLLMTLRLWSS
# TCR beta: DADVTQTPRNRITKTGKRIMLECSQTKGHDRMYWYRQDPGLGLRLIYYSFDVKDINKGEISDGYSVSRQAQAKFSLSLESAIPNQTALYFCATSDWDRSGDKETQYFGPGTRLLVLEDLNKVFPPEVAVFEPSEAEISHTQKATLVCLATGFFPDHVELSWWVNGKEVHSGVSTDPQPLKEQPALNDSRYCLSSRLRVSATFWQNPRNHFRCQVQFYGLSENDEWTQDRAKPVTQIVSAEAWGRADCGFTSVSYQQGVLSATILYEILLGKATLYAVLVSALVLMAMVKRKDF
# notes: no leader limits stated
# B2: MAGE-A4 TCR-5 (fully human TCR) (TCR)
# TCR alpha: AQKITQTQPGMFVQEKEAVTLDCTYDTSDPSYGLFWYKQPSSGEMIFLIYQGSYDQQNATEGRYSLNFQKARKSANLVISASQLGDSAMYFCAMSGGYTGGFKTIFGAGTRLFVKANIQNPDPAVYQLRDSKSSDKSVCLFTDFDSQTNVSQSKDSDVYITDKTVLDMRSMDFKSNSAVAWSNKSDFACANAFNNSIIPEDTFFPSPESSCDVKLVEKSFETDTNLNFQNLSVIGFRILLLKVAGFNLLMTLRLWSS
# TCR beta: DSGVTQTPKHLITATGQRVTLRCSPRSGDLSVYWYQQSLDQGLQFLIQYYNGEERAKGNILERFSAQQFPDLHSELNLSSLELGDSALYFCASSGGDGDEQFFGPGTRLTVLEDLKNVFPPEVAVFEPSEAEISHTQKATLVCLATGFYPDHVELSWWVNGKEVHSGVSTDPQPLKEQPALNDSRYCLSSRLRVSATFWQNPRNHFRCQVQFYGLSENDEWTQDRAKPVTQIVSAEAWGRADCGFTSESYQQGVLSATILYEILLGKATLYAVLVSALVLMAMVKRKDSRG
# notes: no leader limits stated
# B3: MAGE-A4 TCR-6 (fully human TCR) (TCR)
# TCR alpha: GENVEQHPSTLSVQEGDSAVIKCTYSDSASNYFPWYKQELGKRPQLIIDIRSNVGEKKDQRIAVTLNKTAKHFSLHITETQPEDSAVYFCAASRGTGFQKLVFGTGTRLLVSPNIQNPDPAVYQLRDSKSSDKSVCLFTDFDSQTNVSQSKDSDVYITDKTVLDMRSMDFKSNSAVAWSNKSDFACANAFNNSIIPEDTFFPSPESSCDVKLVEKSFETDTNLNFQNLSVIGFRILLLKVAGFNLLMTLRLWSS
# TCR beta: DTAVSQTPKYLVTQMGNDKSIKCEQNLGHDTMYWYKQDSKKFLKIMFSYNNKELIINETVPNRFSPKSPDKAHLNLHINSLELGDSAVYFCASSQFWDGAGDEQYFGPGTRLTVTEDLNKVFPPEVAVFEPSEAEISHTQKATLVCLATGFFPDHVELSWWVNGKEVHSGVSTDPQPLKEQPALNDSRYCLSSRLRVSATFWQNPRNHFRCQVQFYGLSENDEWTQDRAKPVTQIVSAEAWGRADCGFTSVSYQQGVLSATILYEILLGKATLYAVLVSALVLMAMVKRKD
# notes: no leader limits stated
# B4: TCR-1 containing murinized Cα and Cβ regions (TCR)
# TCR alpha: AQKITQTQPGMFVQEKEAVTLDCTYDTSDQSYGLFWYKQPSSGEMIFLIYQGSYDEQNATEGRYSLNFQKARKSANLVISASQLGDSAMYFCAMSGDSAGNMLTFGGGTRLMVKPHIQNPEPAVYQLKDPRSQDSTLCLFTDFDSQINVPKTMESGTFITDKTVLDMKAMDSKSNGAIAWSNQTSFTCQDIFKETNATYPSSDVPCDATLTEKSFETDMNLNFQNLSVMGLRILLLKVAGFNLLMTLRLWSS
# TCR beta: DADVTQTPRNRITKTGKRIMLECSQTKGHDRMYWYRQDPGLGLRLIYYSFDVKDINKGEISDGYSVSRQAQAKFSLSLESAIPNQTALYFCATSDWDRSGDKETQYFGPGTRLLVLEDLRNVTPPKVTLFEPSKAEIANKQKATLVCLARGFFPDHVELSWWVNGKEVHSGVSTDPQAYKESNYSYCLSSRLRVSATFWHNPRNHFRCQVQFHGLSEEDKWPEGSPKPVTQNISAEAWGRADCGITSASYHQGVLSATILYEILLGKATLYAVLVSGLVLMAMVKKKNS
# notes: Expressed on the surface of retrovirally transduced human CD8+ T cells; Human variable regions with murine constant regions; also called MAGE-A4-TCR
# B5: TCR-2 containing murinized Cα and Cβ regions (TCR)
# TCR alpha: AQKITQTQPGMFVQEKEAVTLDCTYDTSDPSYGLFWYKQPSSGEMIFLIYQGSYDQQNATEGRYSLNFQKARKSANLVISASQLGDSAMYFCAMSGGYTGGFKTIFGAGTRLFVKANIQNPEPAVYQLKDPRSQDSTLCLFTDFDSQINVPKTMESGTFITDKTVLDMKAMDSKSNGAIAWSNQTSFTCQDIFKETNATYPSSDVPCDATLTEKSFETDMNLNFQNLSVMGLRILLLKVAGFNLLMTLRLWSS
# TCR beta: DSGVTQTPKHLITATGQRVTLRCSPRSGDLSVYWYQQSLDQGLQFLIQYYNGEERAKGNILERFSAQQFPDLHSELNLSSLELGDSALYFCASSGGDGDEQFFGPGTRLTVLEDLRNVTPPKVTLFEPSKAEIANKQKATLVCLARGFFPDHVELSWWVNGKEVHSGVSTDPQAYKESNYSYCLSSRLRVSATFWHNPRNHFRCQVQFHGLSEEDKWPEGSPKPVTQNISAEAWGRADCGITSASYHQGVLSATILYEILLGKATLYAVLVSGLVLMAMVKKKNS
# notes: as for B4
# B6: TCR-3 containing murinized Cα and Cβ regions (TCR)
# TCR alpha: GENVEQHPSTLSVQEGDSAVIKCTYSDSASNYFPWYKQELGKRPQLIIDIRSNVGEKKDQRIAVTLNKTAKHFSLHITETQPEDSAVYFCAASRGTGFQKLVFGTGTRLLVSPNIQNPEPAVYQLKDPRSQDSTLCLFTDFDSQINVPKTMESGTFITDKTVLDMKAMDSKSNGAIAWSNQTSFTCQDIFKETNATYPSSDVPCDATLTEKSFETDMNLNFQNLSVMGLRILLLKVAGFNLLMTLRLWSS
# TCR beta: DTAVSQTPKYLVTQMGNDKSIKCEQNLGHDTMYWYKQDSKKFLKIMFSYNNKELIINETVPNRFSPKSPDKAHLNLHINSLELGDSAVYFCASSQFWDGAGDEQYFGPGTRLTVTEDLRNVTPPKVTLFEPSKAEIANKQKATLVCLARGFFPDHVELSWWVNGKEVHSGVSTDPQAYKESNYSYCLSSRLRVSATFWHNPRNHFRCQVQFHGLSEEDKWPEGSPKPVTQNISAEAWGRADCGITSASYHQGVLSATILYEILLGKATLYAVLVSGLVLMAMVKKKNS
# notes: as for B4
# Target: T1, MAGE-A4GVY-MHC-multimer (MAGE-A4 230-239, …; immuneAware) (human)
# T1 construct: Bought reagent (immuneAware); also called GVY-specific tetramer
# Assay: flow cytometry, multimer staining of TCR-transduced CD3+ T cells, gated on live CD3+ cells
# From the text: After expansion of these cells, they were stained with a MAGE-A4GVY-MHC-multimer and antibody against CD3 and analyzed by flow cytometry. Populations were gated on live CD3+ cells and multimer staining.
# After expansion, the transduced T cells were stained with a MAGE-A4GVY-MHC-multimer (MAGE-A4²³⁰⁻²³⁹, […]; immuneAware) and antibodies against CD3. Populations were gated on live CD3⁺ cells and multimer staining. All MAGE-A4-TCR-transgenic T cell populations bound the MAGE-A4GVY-MHC-multimer very efficiently (>70%).
row,Binder,percent of cells stained by the multimer [%]
1,B1,> 70
2,B2,> 70
3,B3,> 70

# Target: T1, MAGE-A4GVY-MHC-multimer (MAGE-A4 …)
# Assay: flow cytometry, multimer staining of TCR-transduced CD8+ T cells, gated on live CD8+/mCb+ cells
# From the text: Transduced CD8+ T cells were enriched by FACS using the murine constant beta region as a marker for transduction. After expansion of these cells, they were stained with an MAGE-A4GVY-MHC-multimer and antibodies against CD8 and the murine constant beta region (mmCb) and analyzed by flow cytometry. Populations were gated on live CD8+/mCb+ cells and staining of multimer/CD8 is shown.
# They were stained with a MAGE-A4GVY-MHC-multimer (MAGE-A4²³⁰⁻²³⁹, […]; immuneAware) and antibodies against CD8 and the murine constant beta region. All MAGE-A4-TCR-transgenic T cell populations bound the MAGE-A4GVY-MHC-multimer very efficiently (>70%).
row,Binder,percent of cells stained by the multimer [%]
1,B4,> 70
2,B5,> 70
3,B6,> 70
